Data as given in patent publication US20030235863A1 (published 2003).
No end group written: not given here. *: point of attachment. For = O=C*

B1: formyl peptide receptor (FPR), wild type, solubilized in dodecyl maltoside (receptor, human, UniProt P21462 1-350, looked up)
chain: METNSSLPTNISGGTPAVSAGYLFLDIITYLVFAVTFVLGVLGNGLVIWVAGFRMTHTVTTISYLNLAVADFCFTSTLPFFMVRKAMGGHWPFGWFLCKFVFTIVDINLFGSVFLIALIALDRCVCVLHPVWTQNHRTVSLAKKVIIGPWVMALLLTLPVIIRVTTVPGKTGTVACTFNFSPWTNDPKERINVAVAMLTVRGIIRFIIGFSAPMSIVAVSYGLIATKIHKQGLIKSSRPLRVLSFVAAAFFLCWSPYQVVALIATVRIRELLQGMYKEIGIAVDVTSALAFFNSCLNPMLYVFMGQDFRERLIHALPASLERALTEDSTQTSDTATNSTLPSAEVELQAK
notes: Crude detergent extract of membranes, not purified; the extract holds endogenous G protein subunits; also called wild type receptor; soluble FPR
B3: FPR-GFP fusion protein (receptor)
chain: METNSSLPTNISGGTPAVSAGYLFLDIITYLVFAVTFVLGVLGNGLVIWVAGFRMTHTVTTISYLNLAVADFCFTSTLPFFMVRKAMGGHWPFGWFLCKFVFTIVDINLFGSVFLIALIALDRCVCVLHPVWTQNHRTVSLAKKVIIGPWVMALLLTLPVIIRVTTVPGKTGTVACTFNFSPWTNDPKERINVAVAMLTVRGIIRFIIGFSAPMSIVAVSYGLIATKIHKQGLIKSSRPLRVLSFVAAAFFLCWSPYQVVALIATVRIRELLQGMYKEIGIAVDVTSALAFFNSCLNPMLYVFMGQDFRERLIHALPASLERALTEDSTQTSDTATNSTLPSAEVELQAKAAA
notes: Solubilized in dodecyl maltoside from membranes of transfected cells; also called R^F; fluorescent formyl peptide receptor; not shown: Clontech's EGFP (enhanced green fluorescent protein), from its first amino acid

Legend:
[1] = target: G protein heterotrimer αi3β1H6γ2 on DCNi beads; test: flow cytometry, standard LRG assembly on nickel beads
Sequence of G protein heterotrimer αi3β1H6γ2 on DCNi beads (chain, as listed by the source, chain 1 of 3): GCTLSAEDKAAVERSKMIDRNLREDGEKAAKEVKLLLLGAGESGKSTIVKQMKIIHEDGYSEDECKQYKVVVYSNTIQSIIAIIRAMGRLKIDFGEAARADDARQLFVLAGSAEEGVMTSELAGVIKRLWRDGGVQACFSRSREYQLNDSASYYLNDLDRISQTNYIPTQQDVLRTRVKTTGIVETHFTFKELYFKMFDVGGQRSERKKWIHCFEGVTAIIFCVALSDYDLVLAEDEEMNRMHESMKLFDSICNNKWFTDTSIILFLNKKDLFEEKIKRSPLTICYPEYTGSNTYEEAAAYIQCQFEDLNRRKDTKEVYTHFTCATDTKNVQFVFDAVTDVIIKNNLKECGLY
Sequence of G protein heterotrimer αi3β1H6γ2 on DCNi beads (chain, as listed by the source, chain 2 of 3): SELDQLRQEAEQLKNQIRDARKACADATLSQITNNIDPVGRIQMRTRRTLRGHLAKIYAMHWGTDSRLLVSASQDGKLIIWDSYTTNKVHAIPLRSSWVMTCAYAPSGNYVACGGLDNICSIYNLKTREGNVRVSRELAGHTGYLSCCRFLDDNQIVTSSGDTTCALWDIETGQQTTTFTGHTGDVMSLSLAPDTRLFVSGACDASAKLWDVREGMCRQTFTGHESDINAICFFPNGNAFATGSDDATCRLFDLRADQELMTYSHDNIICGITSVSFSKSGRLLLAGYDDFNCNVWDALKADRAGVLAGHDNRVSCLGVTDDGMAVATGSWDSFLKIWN
Sequence of G protein heterotrimer αi3β1H6γ2 on DCNi beads (chain, as listed by the source, chain 3 of 3): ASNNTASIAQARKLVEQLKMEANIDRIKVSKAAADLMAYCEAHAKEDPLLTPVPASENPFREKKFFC

[2] = target: G protein heterotrimer αi3β1H6γ2 on DCNi beads; test: flow cytometry, L^FRG assembly on DCNi G beads
Gαi3β4γ2H6-FLAG = target: T1, Gαi3β4γ2H6-FLAG; test: flow cytometry, LRG assembly on anti-FLAG beads
T1 construct: Held on streptavidin-coated polystyrene beads through a biotinylated anti-FLAG antibody; also called αi3β4γ2-FLAG-H6
T1 sequence (P08753 2-354, chain 1 of 3): as the sequence (chain, as listed by the source, chain 1 of 3) above
T1 sequence (P29387 2-340, chain 2 of 3, further chain): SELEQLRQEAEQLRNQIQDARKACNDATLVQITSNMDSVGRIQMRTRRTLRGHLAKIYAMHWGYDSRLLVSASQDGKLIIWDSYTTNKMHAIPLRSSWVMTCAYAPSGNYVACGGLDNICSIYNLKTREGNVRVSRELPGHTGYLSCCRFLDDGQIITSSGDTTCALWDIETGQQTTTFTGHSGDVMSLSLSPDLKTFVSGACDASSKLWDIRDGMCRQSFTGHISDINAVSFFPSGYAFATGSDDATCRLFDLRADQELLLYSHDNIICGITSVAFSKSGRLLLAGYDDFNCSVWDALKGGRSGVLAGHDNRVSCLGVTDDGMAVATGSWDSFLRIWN
T1 sequence (P63212 2-68, chain 3 of 3, further chain): as the sequence (chain, as listed by the source, chain 3 of 3) above

[3] = target: β1H6γ2 dimer on DCNi beads; test: flow cytometry, βγ-coated DCNi beads, 1 µM GTP (bar 6) against GTPγS (bar 2)
Sequence of β1H6γ2 dimer on DCNi beads (chain, as listed by the source, chain 1 of 2): as the sequence (chain, as listed by the source, chain 2 of 3) above
Sequence of β1H6γ2 dimer on DCNi beads (chain, as listed by the source, chain 2 of 2): as the sequence (chain, as listed by the source, chain 3 of 3) above

[4] = target: G protein heterotrimer αi3β1H6γ2 on DCNi beads; test: flow cytometry, standard assembly (bar 3) against GTPγS (bar 4)
[5] = target: T2, C-terminal hexahistidine-tagged FPR (human, UniProt P21462 1-350); test: receptor on DCNi beads, flow cytometry with rapid mixer, anti-FITC antibody added
T2 construct: Construct limits and junction are not described; also called FPR:C-H6; C-H6:FPR
T2 sequence: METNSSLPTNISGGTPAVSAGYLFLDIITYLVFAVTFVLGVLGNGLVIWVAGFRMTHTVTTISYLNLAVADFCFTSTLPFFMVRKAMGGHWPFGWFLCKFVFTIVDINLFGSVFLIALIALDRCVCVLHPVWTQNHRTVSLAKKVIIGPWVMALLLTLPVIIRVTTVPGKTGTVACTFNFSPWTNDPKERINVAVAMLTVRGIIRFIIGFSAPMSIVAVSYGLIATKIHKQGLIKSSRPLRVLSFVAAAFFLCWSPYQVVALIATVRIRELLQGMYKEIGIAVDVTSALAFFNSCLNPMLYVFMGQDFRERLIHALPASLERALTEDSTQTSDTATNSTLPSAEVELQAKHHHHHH

[6] = target: T2, C-terminal hexahistidine-tagged FPR; test: soluble receptor in detergent, dissociation of L^F
[7] = target: T3, N-terminal hexahistidine-tagged FPR (human, UniProt P21462 1-350); test: soluble receptor in detergent, dissociation of L^F
T3 construct: Construct limits and junction are not described; also called N-H6:FPR
T3 sequence: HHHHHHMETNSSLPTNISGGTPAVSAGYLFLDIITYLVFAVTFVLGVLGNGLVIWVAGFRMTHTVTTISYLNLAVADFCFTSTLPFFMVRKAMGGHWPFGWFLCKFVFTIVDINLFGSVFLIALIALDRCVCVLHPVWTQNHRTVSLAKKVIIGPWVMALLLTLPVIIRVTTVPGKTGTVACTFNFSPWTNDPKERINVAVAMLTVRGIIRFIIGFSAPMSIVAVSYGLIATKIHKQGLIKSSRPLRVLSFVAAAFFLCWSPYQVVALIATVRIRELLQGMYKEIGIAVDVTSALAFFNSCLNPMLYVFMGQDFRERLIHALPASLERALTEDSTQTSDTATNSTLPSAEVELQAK

[8] = target: B1; test: soluble receptor in detergent, spectrofluorimetry, dissociation of L^F
Description: (§1) Spectrofluorimetric Analysis of Soluble Complexes. Fluorescence was measured with an SLM 8000 spectrofluorimeter (SLM Instruments, Inc.) using the photon counting mode. The sample holder was fitted with a cylindrical cuvette adapter, which allowed the use of 200 μl samples in 7mm ×45 mm cylindrical cuvettes (Sienco; Wheat Ridge, Colo.), stirred with 2×5 mm stir bars (Bel-Art). Excitation was at 490 nm, and stray light was reduced with a 490+/−10 nm filter (Corion; now part of Spectra-Physics, Franklin, Mass.). Emission was monitored using a 520+/−10 nm filter (Corion) and a 500 nm long-pass filter (Kopp; Pittsburg, Pa.). Additions to samples during kinetic measurements were made through an injection port on the top of the sample holder with 10 μl glass syringes (Hamilton; Reno, Nev.). […] For accurate analysis, and for kinetic dissociation analysis, the percent of the control curve corresponding to the percent free ligand was subtracted from the receptor-containing curve.

[9] = target: T2, C-terminal hexahistidine-tagged FPR; test: soluble receptor in detergent, spectrofluorimetry
Description: as §1

[10] = target: T3, N-terminal hexahistidine-tagged FPR; test: soluble receptor in detergent, spectrofluorimetry
Description: as §1

[11] = target: B1; test: soluble receptor in detergent, spectrofluorimetry
Description: as §1

[12] = target: T2, C-terminal hexahistidine-tagged FPR; test: receptor on DCNi beads, flow cytometry
[13] = target: T3, N-terminal hexahistidine-tagged FPR; test: receptor on DCNi beads, flow cytometry
[14] = target: B1; test: spectrofluorimetry, soluble FPR in dodecyl maltoside, free ligand quenched by anti-FITC antibody
Text: For accurate analysis, and for kinetic dissociation analysis, the percent of the control curve corresponding to the percent free ligand was subtracted from the receptor-containing curve.
The free ligand and bound ligand were discriminated using an antibody to fluorescein that rapidly quenched only the free ligand.

[15] = target: B1; test: spectrofluorimetric competition with L^F for soluble FPR; IC50 converted to Kd
Description: as §1
(§2) Comparison of LR and LRG Affinities for a Family of Non-fluorescent Ligands.

FPR-GFP fusion protein [16] = target: B3; test: flow cytometry, LRG assembly on DCNi G beads with 30 nM FPR-GFP
Description: Standard LRG Assembly Assay. […] Each mixture was mixed by pipetting to ensure a uniform starting suspension of the beads in 96 V-well plates (Costar), and then mixed at low speed on a vortex mixer at 7° for two hours. The 10 μl assays were individually brought to 200 μl with 0.1% dodecyl maltoside in buffer A in 12×75 mm tubes for flow cytometric measurement of fluorescence of the beads. LRG assembly was defined as the difference between fluorescence without GTPγS and that with GTPγS. All determinations were done in duplicate.

FPR-GFP fusion protein [17] = target: B3; test: Kd from competition on soluble FPR divided by EC50 of LRG assembly with FPR-GFP
Text: as §2

**Q.** How did the “ratio of total signal to nonspecific signal” value [1] turn out when B1 was run?
**A.** 3 ratio

**Q.** And the signal to background [2]?
**A.** ≤ 4 ratio

**Q.** What about the “ratio of total signal to nonspecific signal” value (Gαi3β4γ2H6-FLAG) of the same binder?
**A.** 3 ratio

B2: FPR-Giα2 fusion protein (receptor, human;rat)
chain: METNSSLPTNISGGTPAVSAGYLFLDIITYLVFAVTFVLGVLGNGLVIWVAGFRMTHTVTTISYLNLAVADFCFTSTLPFFMVRKAMGGHWPFGWFLCKFVFTIVDINLFGSVFLIALIALDRCVCVLHPVWTQNHRTVSLAKKVIIGPWVMALLLTLPVIIRVTTVPGKTGTVACTFNFSPWTNDPKERINVAVAMLTVRGIIRFIIGFSAPMSIVAVSYGLIATKIHKQGLIKSSRPLRVLSFVAAAFFLCWSPYQVVALIATVRIRELLQGMYKEIGIAVDVTSALAFFNSCLNPMLYVFMGQDFRERLIHALPASLERALTEDSTQTSDTATNSTLPSAEVELQAKAAAMGCTVSAEDKAAAERSKMIDKNLREDGEKAAREVKLLLLGAGESGKSTIVKQMKIIHEDGYSEEECRQYRAVVYSNTIQSIMAIVKAMGNLQIDFADPQRADDARQLFALSCAAEEQGMLPEDLSGVIRRLWADHGVQACFGRSREYQLNDSAAYYLNDLERIAQSDYIPTQQDVLRTRVKTTGIVETHFTFKDLHFKMFDVGGQRSERKKWIHCFEGVTAIIFCVALSAYDLVLAEDEEMNRMHESMKLFDSICNNKWFTDTSIILFLNKKDLFEEKITQSPLTICFPEYTGANKYDEAASYIQSKFEDLNKRKDTKEIYTHFTCATDTKNVQFVFDAVTDVIIKNNLKDCGLF
notes: Solubilized in dodecyl maltoside; also called FPR-αi2; FPR-Gαi2
**Q.** Which “total fluorescence to background ratio” value [3] does the source give for B2 here?
**A.** 2.7 ratio

**Q.** For B3, which “total binding to background ratio” value [4] is on record?
**A.** 4.9 ratio

B4: formyl-MLFK-FITC (peptide)
peptide: For-MLFK
modifications: also: FITC conjugated, site not given here
notes: everywhere else it is fMLFK-FITC; also called fMLFK-FITC; fluorescent ligand
**Q.** For B4, which “t1/2 (dissociation halftime)” value [5] is on record?
**A.** 14 s

**Q.** And the “t1/2 (dissociation halftime)” value [6]?
**A.** 14 s

**Q.** What about the “t1/2 (dissociation halftime)” value [7] of the same binder?
**A.** 15 s

**Q.** And the “t1/2 (dissociation halftime)” value [8]?
**A.** 14 s

**Q.** What about the Kd [9] of the same binder?
**A.** 10 nM

**Q.** What about the Kd [10] of the same binder?
**A.** 7 nM

**Q.** And the Kd [11]?
**A.** 5 nM

**Q.** And the Kd [12]?
**A.** 4 nM

**Q.** And the Kd [13]?
**A.** 8 nM

**Q.** And the Kd [14]?
**A.** 4.8 nM

B5: fMLFF (peptide)
peptide: For-MLFF
**Q.** Which results are given for B5?
**A.** Kd [15]: 75 nM; EC50 (FPR-GFP fusion protein [16]): 27 nM; ratio of Kd (for LR) to EC50 (for LRG formation) (FPR-GFP fusion protein [17]): 2.8 ratio
